The target of this assay is SARS-CoV-2 Spike protein (SARS-CoV-2), P0DTC2. Nature of the assay: cell-based or functional assay.

No end group written: not given here.

B1: Bf APC/B3E (peptide)
peptide: DISQINASVVNIEYEIXKLEEVAXKLEESLIDLQELGSGSGC
modifications: not fully specified (C-terminus); also: α/β-peptide, β-residue positions not given here
On to B1, for which the inhibition of S-mediated cell-cell fusion (β-Gal complementation), IC50 was 50 nM.

Source of the values: patent publication US20260232759A1, “PEPTIDES THAT INHIBIT INFECTION BY SARS-COV-2, THE VIRUS THAT CAUSES COVID-19 DISEASE” (Wisconsin Alumni Research Foundation, priority 2021, published 2026).
